# Values quoted from earlier work in publication PMC8136485, “Were Ancestral Proteins Less Specific?” (Molecular Biology and Evolution, 2021).
# Biological target: NCX1 peptide (Homo sapiens) (UniProt P32418)
# Settings: cited from earlier work
# hA5 (S100A5), sequence (P33763 whole entry): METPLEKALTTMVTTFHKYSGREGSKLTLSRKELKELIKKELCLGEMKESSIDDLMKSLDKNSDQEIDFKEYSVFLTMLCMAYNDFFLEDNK
# NCX1 peptide (Homo sapiens), sequence (P32418 36-973): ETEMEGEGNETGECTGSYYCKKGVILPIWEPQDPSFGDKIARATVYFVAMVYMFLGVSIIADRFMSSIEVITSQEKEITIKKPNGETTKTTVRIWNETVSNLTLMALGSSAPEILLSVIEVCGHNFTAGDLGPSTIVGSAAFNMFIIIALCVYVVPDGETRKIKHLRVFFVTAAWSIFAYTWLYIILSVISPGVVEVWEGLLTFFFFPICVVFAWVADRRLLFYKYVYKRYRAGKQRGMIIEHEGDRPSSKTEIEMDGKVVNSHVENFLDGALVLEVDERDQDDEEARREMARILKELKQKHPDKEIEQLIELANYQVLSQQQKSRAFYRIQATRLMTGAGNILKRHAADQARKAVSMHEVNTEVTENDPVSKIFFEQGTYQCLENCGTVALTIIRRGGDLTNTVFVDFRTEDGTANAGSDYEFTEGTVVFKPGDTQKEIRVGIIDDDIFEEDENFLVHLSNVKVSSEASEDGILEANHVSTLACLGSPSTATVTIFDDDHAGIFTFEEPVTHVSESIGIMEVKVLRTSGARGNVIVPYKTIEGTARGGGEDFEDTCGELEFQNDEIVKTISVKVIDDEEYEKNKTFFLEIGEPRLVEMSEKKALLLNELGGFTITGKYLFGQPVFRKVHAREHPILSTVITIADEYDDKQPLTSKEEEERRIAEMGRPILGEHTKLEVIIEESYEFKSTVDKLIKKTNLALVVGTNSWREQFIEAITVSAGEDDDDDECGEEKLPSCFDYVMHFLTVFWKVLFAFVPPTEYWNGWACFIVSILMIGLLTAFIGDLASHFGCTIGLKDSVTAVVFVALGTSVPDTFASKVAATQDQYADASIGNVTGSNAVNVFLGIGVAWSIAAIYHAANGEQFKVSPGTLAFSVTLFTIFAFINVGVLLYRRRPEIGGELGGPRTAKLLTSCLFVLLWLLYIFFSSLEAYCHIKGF
substance,measurement,value
hA5 (S100A5) (from UniProt P33763),Kd,18 µM
